From US8980255B2, “Treatment of autoimmune disease by modulating annexin-1 (lipocortin 1)” (Queen Mary & Westfield College, priority 2008, dated 2015)
Where no end group is shown, it is not given here.

B1: hrAnx-A1: Endotoxin-free human recombinant Anx-A1 (Annexin-1, 37-kDa protein) (protein, UniProt P04083 1-346, looked up)
chain: MAMVSEFLKQAWFIENEEQEYVQTVKSSKGGPGSAVSPYPTFNPSSDVAALHKAIMVKGVDEATIIDILTKRNNAQRQQIKAAYLQETGKPLDETLKKALTGHLEEVVLALLKTPAQFDADELRAAMKGLGTDEDTLIEILASRTNKEIRDINRVYREELKRDLAKDITSDTSGDFRNALLSLAKGDRSEDFGVNEDLADSDARALYEAGERRKGTDVNVFNTILTTRSYPQLRRVFQKYTKYSKHDMNKVLDLELKGDIEKCLTAIVKCATSKPAFFAEKLHQAMKGVGTRHKALIRIMVSRSEIDMNDIKAFYQKMYGISLCQAILDETKGDYEKILVALCGGN
modifications: full-length

Experiments:
[1] = system: murine naïve lymph node T cells; assay: T cell proliferation (3H-thymidine incorporation), anti-CD3/CD28 stimulation; assay type: cell-based
Description: Primary murine T cells were prepared from lymph nodes by negative selection. Briefly, axillary, inguinal, and mesenteric lymph nodes were teased apart to make a single cell suspension, then washed and layered over Ficoll. The buffy coat was washed 2 times and then incubated with the antibody mix and the magnetic beads following the manufacturer's instructions (mouse T-cell negative isolation kit; Dynal, Bromborough, United Kingdom). In some experiments, cells were further purified to obtain naive CD62L^+ CD4^+ T cells by using the Miltenyi Biotec CD62L^+ CD4^+ T-cell isolation kit. Th0 conditions were created by T cells for 4 days in 6-well plates precoated with anti-CD3 (5 μg/mL) and anti-CD28 (5 μg/mL) in complete RPMI medium (10% fetal calf serum [FCS], 2 mM L-glutamine, and 100 units mL^−1 gentamycin) containing murine IL-2 (20 U/mL). […]
Purified lymph node T cells (10^5 cells/mL) were incubated with medium alone or with different concentrations of hrAnx-A1 for 2 hours at 37° C. in Eppendorf tubes. […] After 18 hours, cultures were pulsed for 8 hours with 1 μCi (3.7×10^4 Bg) [^3H]-thymidine (Amersham Pharmacia Biotech, Piscataway, N.J.) and incorporated radioactivity was measured by automated scintillation counter (Packard Instruments, Pangbourne, United Kingdom). […]

[2] = system: murine naïve lymph node T cells; assay: IL-2 production from anti-CD3/CD28 stimulated T cells; assay type: cell-based
Description: The effects of an N-terminal peptide of hrAnx-A1 (peptide Ac 2-26) and of full length hrAnx-A1 on T cell activation were investigated. IL-2 production from murine naïve lymph node T cells was stimulated with 0.6, 1.25 or 2.5 μg/ml of anti-CD3/CD28 in the presence or absence of full length hrAnx-A1 (300 nM) or the Anx-A1 derived N-terminal peptide Ac.2-26 (100 μM) for 24 hrs.

[3] = system: Activator Protein-1 (AP-1); assay: Electrophoretic Mobility Shift Assay for AP-1 activation in T cells; assay type: cell-based; conditions: T cells stimulated with anti-CD3/CD28 1.25 μg/ml in presence of hrAnx-A1; FIG. 5A
Description: (§1) Nuclear extracts were harvested from 3×10^6 to 5×10^6 cells according to previously described protocols. Nuclear extracts (3 μg to 5 μg) were incubated with 1 μg (for NFAT) or 2 μg (for NF-κB and AP-1) of poly (dI:dC) in 20 μL binding buffer with ^32P end-labeled, double-stranded oligonucleotide probes (5×10^5 cpm), and fractionated on a 6% polyacrylamide gel (29:1 cross-linking ratio) in 0.5% TBE for 2.5 hours at 150 V. The NF-κB and AP-1 binding buffer (10×) contained 100 mM Tris-HCl, (pH 7.5), 500 mM NaCl, 10 mM EDTA, 50% glycerol, 10 mg/mL albumin, 30 mM GTP, 10 mM DTT. The NFAT binding buffer (10×) contained 100 mM Hepes (pH 7.9), 500 mM KCl, 1 mM EDTA, 1 mM EGTA, 50% glycerol, 5 mg/mL albumin, 1% Nonidet P-40, 10 mM DTT. The NF-κB and AP-1 double-stranded oligonucleotide probes were from Promega and the NFAT was from Santa Cruz Biotechnology (Santa Cruz, Calif.).
(§2) Investigations were carried out into how exogenous and endogenous Anx-A1 modulates T cell activation. The three major transcriptional activators of T cells, namely Activator Protein-1 (AP-1), Nuclear Factor-κB (NF-κB) and Nuclear Factor of Activated T cells (NFAT) were analysed in cells stimulated in presence of hrAnx-A1. […]

[4] = system: Nuclear Factor-κB (NF-κB); assay: Electrophoretic Mobility Shift Assay for NF-κB activation in T cells; assay type: cell-based; conditions: T cells stimulated with anti-CD3/CD28 1.25 μg/ml in presence of hrAnx-A1; FIG. 5A
Description: as §1, §2

[5] = system: DBA mice; assay: collagen-induced arthritis (CIA) model; assay type: in vivo; conditions: 1 μg s.c. twice a day for 12 days after immunization with collagen, compared to PBS vehicle; FIGS. 8A, 8B
Description: Mice were injected with hrAnx-A1 daily for 12 days after immunization with collagen (time during which naïve cells differentiate in Th effector cells) and thereafter the progression of the disease upon antigen challenge was analyzed. […] Synchronization of disease onset was obtained by boosting with collagen on day 21, and clinical signs were evident from day 22 (day 1 of the onset of the diseases). Values are mean±S.E. of n=6-8 mice. Groups were compared using the Maim-Whitney test. *P<0.01

[6] = system: Nuclear Factor of Activated T cells (NFAT); assay: Electrophoretic Mobility Shift Assay for NFAT activation in T cells; assay type: cell-based; conditions: T cells stimulated with anti-CD3/CD28 1.25 μg/ml in presence of hrAnx-A1; FIG. 5A
Description: as §1, §2

[7] = system: naïve lymph node T cells; assay: Th1/Th2 differentiation in vitro, cytokine production on anti-CD3 restimulation; assay type: cell-based, mice; conditions: Th1 or Th2 conditions, hrAnx-A1 600 nM, anti-CD3 5.0 μg/ml re-stimulation 8 h; FIG. 7A
Description: Primary murine T cells were prepared from lymph nodes by negative selection. Briefly, axillary, inguinal, and mesenteric lymph nodes were teased apart to make a single cell suspension, then washed and layered over Ficoll. The buffy coat was washed 2 times and then incubated with the antibody mix and the magnetic beads following the manufacturer's instructions (mouse T-cell negative isolation kit; Dynal, Bromborough, United Kingdom). In some experiments, cells were further purified to obtain naive CD62L^+ CD4^+ T cells by using the Miltenyi Biotec CD62L^+ CD4^+ T-cell isolation kit. Th0 conditions were created by T cells for 4 days in 6-well plates precoated with anti-CD3 (5 μg/mL) and anti-CD28 (5 μg/mL) in complete RPMI medium (10% fetal calf serum [FCS], 2 mM L-glutamine, and 100 units mL^−1 gentamycin) containing murine IL-2 (20 U/mL). Th1 conditions were created with murine IL-12 (3.4 ng/mL; eBioscience), IL-2 (20 U/mL; eBioscience), and anti-IL4 (clone 11B11; 2 μg/mL). Th2 conditions were created with IL-4 (3000 U/mL; Peprotech, Rocky Hill, N.J.), IL-2 (20 U/mL), and anti-IFN-γ (clone XMG1.2; 2 μg/mL). Jurkat cells were obtained from ATCC (Manassas, Va.) and were cultured in complete RPMI medium.
For Th1/Th2 cytokine production analysis, Th0/Th1/Th2 cells (10^6/mL) obtained after 4-day differentiation in skewing conditions and 1 day of resting in complete RPMI medium, were stimulated with plate-bound anti-CD3 (5 μg/mL) for 8 h in 24-well plates. Culture supernatants were collected and analyzed for IFN-γ, IL-2, IL-4 and IL-10 content by using Th1/Th2 panel ELISA kit (eBioscience). The IL-13 ELISA kit was also purchased from eBioscience.
Naïve lymph node T cells were differentiated in vitro in Th1 (black bars) or Th2 (white bars) conditions in presence or absence of hrAnx-A1 (600 nM) and then restimulated with plate-bound anti-CD3 (5.0 μg/ml) for 8 h to measure Th1 or Th2 cytokine production. Values are mean±S.E. of n=4-5 mice. **P<0.01

[8] = system: murine naïve lymph node T cells; assay: CD25 and CD69 cell surface expression by FACS; assay type: cell-based; conditions: hrAnx-A1 150, 300, 600 nM; anti-CD3/CD28 1.25-5.0 μg/ml, 12 hrs; FIGS. 3C, 3D
Description: Purified lymph node T cells were pretreated with human recombinant Anx-A1 for 2 hours at 37° C. in Eppendorf tubes and then stimulated with plate-bound anti-CD3 and anti-CD28 as indicated in the figures. After 16 hours, the cells were stained with PE-conjugated anti-CD69 (clone H1.2F3) and FITC-conjugated anti-CD25 (clone PC61.5) diluted in FACS buffer (PBS containing 1% FCS and 0.02% […]). Intact cells were gated by using forward and side scatter and were analyzed with the CellQuest program (Becton Dickinson, Franklin Lakes, N.J.) on a FACScan flow cytometer. […]
Murine naïve lymph node T cells were stimulated with anti-CD3/CD28 at a concentration of 1.25 μg/ml (left column), 2.5 μg/ml (middle column) and 5.0 μg/ml (right column), in the absence of (upper panels) or in the presence of (lower panels) hrAnx-A1 (600 nM) for 12 hrs and then analyzed for CD25 and CD69 expression by FACS.
In FIG. 3D, murine naïve lymph node T cells were stimulated with the indicated concentration of anti-CD3/CD28 in the presence of 150 (X), 300 ( ? ) and 600 (◯) nM of hrAnx-A1 for 12 hours and then analysed for CD25 (left graph) and CD69 (right graph) expression by FACS.

Molecule | T cell proliferation ([1]; Ac.2-26, data not shown) | IL-2 production ([2]; Ac.2-26 100 μM, anti-CD3/CD28 0.6, 1.25 or 2.5 μg/ml, 24 hrs, FIG. 9) | cell proliferation ([1]; pre-treatment with hrAnx-A1, anti-CD3/CD28 5.0, 2.5 and 1.25 μg/ml, 24 hrs, FIG. 3A) | IL-2 production ([2]; anti-CD3/CD28 1.25 μg/ml, different concentrations of hrAnx-A1, 24 hrs, FIG. 3B) | activation of AP-1 [3] | activation of NF-κB [4] | signs and symptoms of arthritis (paw volume, clinical score) [5] | activation of NFAT [6] | IFNγ production [7] | IL2 production [7] | IL4 release [7] | IL 10 release [7] | cell surface expression of CD25 [8] | cell surface expression of CD69 [8]
CH3CO-AMVSEFLKQA WFIENEEQEYVQTVK (Ac-AMVSEFLKQAWFIENEEQEYVQTVK; listed as Homo sapiens) [Ac.2-26, reference compound] | increased | increased | – | – | – | – | – | – | – | – | – | – | – | –
B1 | – | – | augmented | augmented | increased activation | increased activation | exacerbated | increased activation | increased | increased | decrease | decrease | augmented | augmented
